Experimental data reported in patent US20050106100A1, “Compounds containing matrix metalloproteinase substrates and methods of their use” (priority 2003, published 2005).

Key:
[1] = tested on: CC(=O)N1CCC[C@H]1C(=O)N[C@@H](CC(C)C)C(=O)NCC(=O)N[C@@H](CCc1ccccc1)C(=O)N[C@@H](Cc1ccc(O)cc1)C(=O)N[C@@H](CC(C)C)C(=O)NNC(=O)c1ccc(N/N=C/c2ccccc2S(=O)(=O)ON)nc1; assay: Kinetic measurements of substrate hydrolysis by active MMP-9 (radio HPLC assay); format: biochemical, human; conditions: other: active MMP-9 final concentration 2 nM, 37° C., 60 minutes, radiolabeled test substrate, pH 7.5
Description: (§1) Purified MMP-2 (10 μg) or MMP-9 (10 μg) were reconstituted in 100 μL of TCN buffer. […] Pro-MMP-2 was activated by incubation with 2 nM APMA for 2 hours at 37° C. At the end of incubation 100 μl of 100% glycerol was added to active MMP-2 and active MMP-9 (final concentration 50% glycerol). Active MMP-2 and active MMP-9 were aliquoted and stored at −20° C.
(§2) The level of active protease was always quantified by active site titration studies prior to kinetic studies. The active site of MMP-9 and MMP-2 was titrated using the GM6001 dissolved in 100% DMSO at a stock concentration of 2.5 mM. Dilutions (1:2) of GM6001 were prepared in TCN buffer to give a final concentration of 5 nM to 0.04 nM GM6001 in the active site titration assay. Activated MMP-2 or activated MMP-9 (2 nM) was preincubated with increasing concentrations of GM60001 at 37° C. for 15 minutes in 96 well black microtiter plates. […] Plates were read on fluorescence spectrophotometer at excitation wavelength of 320 nm and emission wavelength of 395 nm. The concentration of the active enzyme was determined using the Morrison equation and Kaleidagraph software (Reading, Pa.).
(§3) The kinetic parameters of substrate hydrolysis were determined using a radio HPLC assay. The turnover of different substrates by active MMP-2 and active MMP-9 was determined using this assay. […] The radiolabel was detected by a IN/US beta ram detector. […]

[2] = tested on: CC(=O)N1CCC[C@H]1C(=O)N[C@@H](CCCN)C(=O)NCC(=O)N[C@@H](CCc1ccccc1)C(=O)N[C@@H](CC(C)C)C(=O)NNC(=O)c1ccc(N/N=C/c2ccccc2S(=O)(=O)O)nc1; assay: as above; format: biochemical, human; conditions: other: active MMP-9 final concentration 2 nM, 37° C., 60 minutes, radiolabeled test substrate, pH 7.5
Description: as §1, §2, §3

Sequence of MMP-9 (Homo sapiens) (chain, as listed by the source): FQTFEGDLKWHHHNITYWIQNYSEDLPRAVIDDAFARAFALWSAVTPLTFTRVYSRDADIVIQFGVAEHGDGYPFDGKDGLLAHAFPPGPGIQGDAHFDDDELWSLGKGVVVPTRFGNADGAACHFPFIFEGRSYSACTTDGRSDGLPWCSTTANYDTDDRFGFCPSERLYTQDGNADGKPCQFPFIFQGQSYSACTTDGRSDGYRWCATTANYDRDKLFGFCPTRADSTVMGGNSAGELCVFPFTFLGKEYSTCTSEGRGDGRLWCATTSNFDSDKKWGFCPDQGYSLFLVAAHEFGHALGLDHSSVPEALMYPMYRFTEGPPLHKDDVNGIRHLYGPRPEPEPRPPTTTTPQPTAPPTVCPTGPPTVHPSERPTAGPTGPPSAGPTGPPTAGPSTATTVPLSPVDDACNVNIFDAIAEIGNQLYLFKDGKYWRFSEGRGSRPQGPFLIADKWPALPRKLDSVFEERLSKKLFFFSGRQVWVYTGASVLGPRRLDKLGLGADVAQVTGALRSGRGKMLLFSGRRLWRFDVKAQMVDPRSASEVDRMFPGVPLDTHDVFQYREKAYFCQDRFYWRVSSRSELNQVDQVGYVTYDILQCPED

MMP-9 (Homo sapiens)
kcat/Km [1]: > 100000 M⁻¹ s⁻¹ | kcat/Km [2]: 4450 M⁻¹ s⁻¹
